Assay results published in publication PMC10232371, “Enhanced rare-earth separation with a metal-sensitive lanmodulin dimer” (Nature, 2023).

B1: Hansschlegelia quercus lanmodulin (Hans-LanM), residues A24-K133 (natural protein)
chain: ASGADALKALNKDNDDSLEIAEVIHAGATTFTAINPDGDTTLESGETKGRLTEKDWARANKDGDQTLEMDEWLKILRTRFKRADANKDGKLTAAELDSKAGQGVLVMIMK
notes: lanmodulin (LanM) of Hansschlegelia quercus without its native 23-residue signal peptide; expressed with an N-terminal Met that is cleaved, so the first residue is A24; Metal-free (apo) or loaded with rare-earth(III) ions as named in each assay; expressed from pET-29b(+); also called wild-type Hans-LanM; source: E. coli, purified (SEC, dialysed against Chelex 100)

Columns and labels:
[1] = biological target: Lanmodulin from Hansschlegelia quercus (Hans-LanM), wild type (Hansschlegelia quercus); test: SEC; analytical size-exclusion chromatography of Hans-LanM in the presence of three equivalents of La(III)
[2] = biological target: Lanmodulin from Hansschlegelia quercus (Hans-LanM), wild type (Hansschlegelia quercus); test: ITC; dilutive additions of 300 uM apo protein into matched buffer (30 mM MOPS, 100 mM KCl, pH 7.0), 30 °C; Dimer Dissociation model; dimer to monomers
[3] = biological target: Lanmodulin from Hansschlegelia quercus (Hans-LanM), wild type (Hansschlegelia quercus); test: SEC-MALS; Hans-LanM pre-incubated with 3 equiv. La(III), Nd(III) or Gd(III); 1.2-1.5 mg/mL loaded; buffer B (30 mM MOPS, 100 mM KCl, 5% glycerol, pH 7.0)
[4] = biological target: Lanmodulin from Hansschlegelia quercus (Hans-LanM), wild type (Hansschlegelia quercus); test: ITC; dilutive additions of 300 uM protein with 2 equivalents of Dy(III) into matched buffer (30 mM MOPS, 100 mM KCl, pH 7.0), 30 °C; Dimer Dissociation model; dimer to monomers
[5] = biological target: Lanmodulin from Hansschlegelia quercus (Hans-LanM), wild type (Hansschlegelia quercus); test: ITC; dilutive additions of 150 uM or 540 uM protein with 2 equivalents of La(III) into matched buffer (30 mM MOPS, 100 mM KCl, pH 7.0), 30 °C; no change of heats seen, only an upper limit; dimer to monomers
[6] = biological target: the molecule itself; test: SEC; analytical Superdex 75 column (24 mL); protein metalated with 3.0 equiv. La(III)
[7] = biological target: the molecule itself; test: SEC; analytical Superdex 75 column (24 mL); apo protein (590 uM, 100 uL) metalated with 3.0 equiv. Nd(III)
[8] = biological target: the molecule itself; test: SAXS; La(III)-bound protein from SEC-MALS fractions, 1.5 mg/mL; 30 mM MOPS, 100 mM KCl, 5% glycerol, pH 7.0, 22 C; Porod volume, OLIGOMER and CRYSOL analyses
[9] = biological target: the molecule itself; test: SAXS; Nd(III)-bound protein from SEC-MALS fractions, 1.4 mg/mL; 30 mM MOPS, 100 mM KCl, 5% glycerol, pH 7.0, 22 C; Porod volume, OLIGOMER and CRYSOL analyses

Molecule | stoichiometry N [1] | Kd [2] | stoichiometry N [3] | Kd [4] | Kd [5] | stoichiometry N [6] | stoichiometry N [7] | stoichiometry N [8] | stoichiometry N [9]
Lanmodulin from Hansschlegelia quercus (Hans-LanM), wild type (natural protein) | 2 | 117 µM | 2 | 60 µM | < 400 nM | – | – | – | –
B1 | – | – | – | – | – | 2 | 2 | 2 | 2
